Experimental data from PMC10089223 (Proceedings of the National Academy of Sciences of the …, 2022).
Positions count from the first letter of the chain named. Names and notes keep the numbering of the source.

B1: AtARF2-FL OPCA (D797-8S) (natural protein, Arabidopsis thaliana, UniProt Q94JM3 1-859, looked up)
chain: MASSEVSMKGNRGGDNFSSSGFSDPKETRNVSVAGEGQKSNSTRSAAAERALDPEAALYRELWHACAGPLVTVPRQDDRVFYFPQGHIEQVEASTNQAAEQQMPLYDLPSKLLCRVINVDLKAEADTDEVYAQITLLPEANQDENAIEKEAPLPPPPRFQVHSFCKTLTASDTSTHGGFSVLRRHADECLPPLDMSRQPPTQELVAKDLHANEWRFRHIFRGQPRRHLLQSGWSVFVSSKRLVAGDAFIFLRGENGELRVGVRRAMRQQGNVPSSVISSHSMHLGVLATAWHAISTGTMFTVYYKPRTSPSEFIVPFDQYMESVKNNYSIGMRFKMRFEGEEAPEQRFTGTIVGIEESDPTRWPKSKWRSLKVRWDETSSIPRPDRVSPWKVEPALAPPALSPVPMPRPKRPRSNIAPSSPDSSMLTREGTTKANMDPLPASGLSRVLQGQEYSTLRTKHTESVECDAPENSVVWQSSADDDKVDVVSGSRRYGSENWMSSARHEPTYTDLLSGFGTNIDPSHGQRIPFYDHSSSPSMPAKRILSDSEGKFDYLANQWQMIHSGLSLKLHESPKVPAATDASLQGRCNVKYSEYPVLNGLSTENAGGNWPIRPRALNYYEEVVNAQAQAQAREQVTKQPFTIQEETAKSREGNCRLFGIPLTNNMNGTDSTMSQRNNLNDAAGLTQIASPKVQDLSDQSKGSKSTNDHREQGRPFQTNNPHPKDAQTKTNSSRSCTKVHKQGIALGRSVDLSKFQNYEELVAELDRLFEFNGELMAPKKDWLIVYTDEENDMMLVGSSPWQEFCCMVRKIFIYTKEEVRKMNPGTLSCRSEEEAVVGEGSDAKDAKSASNPSLSSAGNS
B2: AtARF2-FL K2S (K737S) (natural protein, Arabidopsis thaliana, UniProt Q94JM3 1-859, looked up)
chain: B1 chain with K737S, S797D, S798D

What was measured:
[1] = target: AtARF2-DBD (DNA binding domain of Arabidopsis thaliana auxin response factor 2) (Arabidopsis thaliana)
[2] = target: the molecule itself
AtARF2-FL OPCA (D797-8S) = target: B1

Row | Kd [1] | Kd (AtARF2-FL OPCA (D797-8S)) | Molecule | Kd [2]
1 | 1900 nM | – | AtARF2-DBD (DNA binding domain of Arabidopsis thaliana auxin response factor 2) (domain or fragment) | –
2 | – | – | B1 | 410 nM
3 | – | 16 nM | B2 | 230 nM
